Here are results for 3 molecules from patent US20040006018A1 (Genentech, published 2004).

In assay [1] the target is T1, Mouse LIF (leukemia inhibitory factor) (mouse, UniProt P09056 24-203). In words: 0.042 nM 125I-mouse LIF on M1 cells competed by unlabeled LIF, Scatchard, one-site fit.
From the text: (§1) Shown are competition and Scatchard (insert) plots of the data.
Assay [2] concerns the target T1, Mouse LIF (leukemia inhibitory factor). Put plainly: 0.047 nM 125I-mouse CT-1 on M1 cells competed by unlabeled LIF, Scatchard, one-site fit.
From the text: as §1
The target is the same in assay [3]. In words: Scatchard analysis of binding to M1 cells, summary over both labeled ligands.
The target is the same in assay [4]. In words: competition for 125I-human LIF binding to Hela cells.
The target is the same in assay [5]. Put plainly: binding of LIF to His-tagged soluble LIF receptor on Ni-NTA agarose.

As a reminder, the Kd is the constant that tells how readily two partners part at equilibrium. Read a high Kd as lower affinity.

B1: Mouse LIF receptor on mouse M1 cells (LIF receptor complex with gp130) (receptor)
chain 1: LKRGVQDLKCTTNNMRVWDCTWPAPLGVSPGTVKDICIKDRFHSCHPLETTNVKIPALSPGDHEVTINYLNGFQSKFTLNEKDVSLIPETPEILDLSADFFTSSLLLKWNDRGSALPHPSNATWEIKVLQNPRTEPVALVLLNTMLSGKDTVQHWNWTSDLPLQCATHSVSIRWHIDSPHFSGYKEWSDWSPLKNISWIRNTETNVFPQDKVVLAGSNMTICCMSPTKVLSGQIGNTLRPLIHLYGQTVAIHILNIPVSENSGTNIIFITDDDVYGTVVFAGYPPDVPQKLSCETHDLKEIICSWNPGRITGLVGPRNTEYTLFESISGKSAVFHRIEGLTNETYRLGVQMHPGQEIHNFTLTGRNPLGQAQSAVVINVTERVAPHDPTSLKVKDINSTVVTFSWYLPGNFTKINLLCQIEICKANSKKEVRNATIRGAEDSTYHVAVDKLNPYTAYTFRVRCSSKTFWKWSRWSDEKRHLTTEATPSKGPDTWREWSSDGKNLIVYWKPLPINEANGKILSYNVSCSLNEETQSVLEIFDPQHRAEIQLSKNDYIISVVARNSAGSSPPSKIASMEIPNDDITVEQAVGLGNRIFLTWRHDPNMTCDYVIKWCNSSRSEPCLLDWRKVPSNSTETVIESDQFQPGVRYNFYLYGCTNQGYQLLRSIIGYVEELAPIVAPNFTVEDTSADSILVKWDDIPVEELRGFLRGYLFYFQKGERDTPKTRSLEPHHSDIKLKNITDISQKTLRIADLQGKTSYHLVLRAYTHGGLGPEKSMFVVTKENSVGLIIAILIPVAVAVIVGVVTSILCYRKREWIKETFYPDIPNPENCKALQFQKSVCEGSNALKTLEMNPCTPNNVEVLESRSIVPKIEDTEIISPVAERPGERSEVDPENHVVVSYCPPIIEEEITNPAADEVGGASQVVYIDVQSMYQPQAKAEEEQDVDPVVVAGYKPQMRLPISPAVEDTAAEDEEGKTAGYRPQANVNTWNLVSPDSPRSTDSNNEVVSFGSPCSINSRQFLIPPKDEDSPKSNGGGWSFTNFFQNKPND
chain 2: QLLEPCGYIYPEFPVVQRGSNFTAICVLKEACLQHYYVNASYIVWKTNHAAVPREQVTVINRTTSSVTFTDVVLPSVQLTCNILSFGQIEQNVYGVTMLSGFPPDKPTNLTCIVNEGKNMLCQWDPGRETYLETNYTLKSEWATEKFPDCQSKHGTSCMVSYMPTYYVNIEVWVEAENALGKVSSESINFDPVDKVKPTPPYNLSVTNSEELSSILKLSWVSSGLGGLLDLKSDIQYRTKDASTWIQVPLEDTMSPRTSFTVQDLKPFTEYVFRIRSIKDSGKGYWSDWSEEASGTTYEDRPSRPPSFWYKTNPSHGQEYRSVRLIWKALPLSEANGKILDYEVILTQSKSVSQTYTVTGTELTVNLTNDRYVASLAARNKVGKSAAAVLTIPSPHVTAAYSVVNLKAFPKDNLLWVEWTPPPKPVSKYILEWCVLSENAPCVEDWQQEDATVNRTHLRGRLLESKCYQITVTPVFATGPGGSESLKAYLKQAAPARGPTVRTKKVGKNEAVLAWDQIPVDDQNGFIRNYSISYRTSVGKEMVVHVDSSHTEYTLSSLSSDTLYMVRMAAYTDEGGKDGPEFTFTTPKFAQGEIEAIVVPVCLAFLLTTLLGVLFCFNKRDLIKKHIWPNVPDPSKSHIAQWSPHTPPRHNFNSKDQMYSDGNFTDVSVVEIEANNKKPCPDDLKSVDLFKKEKVSTEGHSSGIGGSSCMSSSRPSISSNEENESAQSTASTVQYSTVVHSGYRHQVPSVQVFSRSESTQPLLDSEERPEDLQLVDSVDGGDEILPRQPYFKQNCSQPEACPEISHFERSNQVLSGNEEDFVRLKQQQVSDHISQPYGSEQRRLFQEGSTADALGTGADGQMERFESVGMETTIDEEIPKSYLPQTVRQGGYMPQ
notes: whole, on cells; Endogenous receptor on M1 cells; also called LIFRβ
On to B1, for which the equilibrium dissociation constant (Kd) was 0.26 nM in assay [1], 0.19 nM in assay [2] and around 0.2 nM in assay [3].

B2: Human LIF receptor on human Hela cells (receptor)
chain: QKKGAPHDLKCVTNNLQVWNCSWKAPSGTGRGTDYEVCIENRSRSCYQLEKTSIKIPALSHGDYEITINSLHDFGSSTSKFTLNEQNVSLIPDTPEILNLSADFSTSTLYLKWNDRGSVFPHRSNVIWEIKVLRKESMELVKLVTHNTTLNGKDTLHHWSWASDMPLECAIHFVEIRCYIDNLHFSGLEEWSDWSPVKNISWIPDSQTKVFPQDKVILVGSDITFCCVSQEKVLSALIGHTNCPLIHLDGENVAIKIRNISVSASSGTNVVFTTEDNIFGTVIFAGYPPDTPQQLNCETHDLKEIICSWNPGRVTALVGPRATSYTLVESFSGKYVRLKRAEAPTNESYQLLFQMLPNQEIYNFTLNAHNPLGRSQSTILVNITEKVYPHTPTSFKVKDINSTAVKLSWHLPGNFAKINFLCEIEIKKSNSVQEQRNVTIKGVENSSYLVALDKLNPYTLYTFRIRCSTETFWKWSKWSNKKQHLTTEASPSKGPDTWREWSSDGKNLIIYWKPLPINEANGKILSYNVSCSSDEETQSLSEIPDPQHKAEIRLDKNDYIISVVAKNSVGSSPPSKIASMEIPNDDLKIEQVVGMGKGILLTWHYDPNMTCDYVIKWCNSSRSEPCLMDWRKVPSNSTETVIESDEFRPGIRYNFFLYGCRNQGYQLLRSMIGYIEELAPIVAPNFTVEDTSADSILVKWEDIPVEELRGFLRGYLFYFGKGERDTSKMRVLESGRSDIKVKNITDISQKTLRIADLQGKTSYHLVLRAYTDGGVGPEKSMYVVTKENSVGLIIAILIPVAVAVIVGVVTSILCYRKREWIKETFYPDIPNPENCKALQFQKSVCEGSSALKTLEMNPCTPNNVEVLETRSAFPKIEDTEIISPVAERPEDRSDAEPENHVVVSYCPPIIEEEIPNPAADEAGGTAQVIYIDVQSMYQPQAKPEEEQENDPVGGAGYKPQMHLPINSTVEDIAAEEDLDKTAGYRPQANVNTWNLVSPDSPRSIDSNSEIVSFGSPCSINSRQFLIPPKDEDSPKSNGGGWSFTNFFQNKPND
notes: whole, on cells; Endogenous receptor on cells; other subunits (gp130) not examined on these cells
Regarding B2, the binding result in assay [4] is listed as “no binding”.

B3: Soluble mouse LIF receptor (extracellular domain, amino acids 1-826, with a C-terminal tag of 6 histidine residues) (receptor)
chain: LKRGVQDLKCTTNNMRVWDCTWPAPLGVSPGTVKDICIKDRFHSCHPLETTNVKIPALSPGDHEVTINYLNGFQSKFTLNEKDVSLIPETPEILDLSADFFTSSLLLKWNDRGSALPHPSNATWEIKVLQNPRTEPVALVLLNTMLSGKDTVQHWNWTSDLPLQCATHSVSIRWHIDSPHFSGYKEWSDWSPLKNISWIRNTETNVFPQDKVVLAGSNMTICCMSPTKVLSGQIGNTLRPLIHLYGQTVAIHILNIPVSENSGTNIIFITDDDVYGTVVFAGYPPDVPQKLSCETHDLKEIICSWNPGRITGLVGPRNTEYTLFESISGKSAVFHRIEGLTNETYRLGVQMHPGQEIHNFTLTGRNPLGQAQSAVVINVTERVAPHDPTSLKVKDINSTVVTFSWYLPGNFTKINLLCQIEICKANSKKEVRNATIRGAEDSTYHVAVDKLNPYTAYTFRVRCSSKTFWKWSRWSDEKRHLTTEATPSKGPDTWREWSSDGKNLIVYWKPLPINEANGKILSYNVSCSLNEETQSVLEIFDPQHRAEIQLSKNDYIISVVARNSAGSSPPSKIASMEIPNDDITVEQAVGLGNRIFLTWRHDPNMTCDYVIKWCNSSRSEPCLLDWRKVPSNSTETVIESDQFQPGVRYNFYLYGCTNQGYQLLRSIIGYVEELAPIVAPNFTVEDTSADSILVKWDDIPVEELRGFLRGYLFYFQKGERDTPKTRSLEPHHSDIKLKNITDISQKTLRIADLQGKTSYHLVLRAYTHGGLGPEKSMFVVTKEHHHHHH
notes: range 44-826; Expressed in human 293 cells, purified on Ni-NTA agarose; single band of 120 kDa; also called smLIFR; soluble LIF receptor
B3 returned a Kd in assay [5] of 1.5 nM.
